# Experimental data taken from publication PMC3547825 (PLoS Computational Biology, 2013).
# Biological target: the molecule itself
protein,measurement,value
wild-type α-hemolysin (WT-HL) (natural protein) ADSDINIKTGTTDIGSNTTVKTGDLVTYDKENGMHKKVFYSFIDDKNHNKKLLVIRTKGTIAGQYRVYSEEGANKSGLAWPSAFKVQLQLPDNEVAQISDYYPRNSIDTKEYMSTLTYGFNGNVTGDDTGKIGGLIGANVSIGHTLKYVQPDFKTILESPTDKKVGWKVIFNNMVNQNWGPYDRDSWNPVYGNQLFMKTRNGSMKAADNFLDPNKASSLLSSGFSPDFATVITMDRKASKQQTNIDVIYERVRDDYQLHWTSTNWKGTNTKDKWIDRSSERYKIDWEKEEMTN,stoichiometry N,7
